Results on one substance are retold here after patent US8329178B2.

Holding throughout (assay): FACS, 293T cells expressing CXCR4 variants
For orientation: In flow cytometry, cells or beads pass a laser one at a time.

Assay [1] concerns the target CXCR2/CXCR4 chimera 2444b (human) (UniProt P61073).
Assay [2] has as its target CXCR2/CXCR4 chimera 4442 (human) (UniProt P61073).
The target of assay [3] is ΔN25-CXCR4 (human) (UniProt P61073).
Assay [4] addresses human CXCR4 (wild type) (human) (UniProt P61073).
In assay [5] the target is ΔN31-CXCR4 (human) (UniProt P61073).
Assay [6] has as its target CXCR2/CXCR4 chimera 2442 (human) (UniProt P61073).

Consider murine monoclonal antibody 12G5, for which the binding to cells expressing the variant (+%) came to 70.1% in assay [1]; 103% in assay [2]; 69.2% in assay [3]; 100% in assay [4]; 55.4% in assay [5]; 85.8% in assay [6].
